B1: SlpA (Deinococcus radiodurans outer membrane protein) (natural protein, UniProt Q9RRB6 23-1167, looked up)
chain: APVSAPQVPALTDVPAGHWAKDAIDRLVSRGVILGYPDGTFRGTQNLTRYEAAIIIARLLDQMRDGETPAGMTAEDMTALQNAIQELAADLAALGVRVSDLEANAVSKDDFARLEARIEEVAAAGGEQGATEALQGQIDDLTARVDEYDALRADVDDNASSIAALNDLTVLLNQDILDLQDRVSAVEAAQADFVQRSDFDALGGRVTTVETRVETVNNSLTGRIAALERNAFSVKPSLTIGYSVSRTSRNFDVDRLFPLNADGTVANNAFTSGGIDTDTGAQRRDFGDFGNASDPVVAGAAGLYGFADGVSYTVYFTDGSTATFDGLNPADYKVPTGKVIDTTKGRNGFGFNNLARYKEGSTDIGISLGFDTSGQFSQVTSGTGGSLFSTAGRLQVNQIDLNFGLVTGLPSDAYVDTNGNGKKDDGEATGRGTYLGSGGTAAILRDPAGNVYRPVFFRFKNATTQFSVGNNPVIVTLGQQQKFYFSDYVFDNNYDGRGDGFTVTVDGSNVPVIGAWKPQIKGVYGSRSGLDGTAEAGYGVYYRGVRAQITPVGTLTAGIHYAQEGRDMFGAAQNTTSTPSDVTTYGADLHGKAFGVELHSEYATSRVRPNTANAAVQTSNAFYARVATRKDNLAFDLNTPAAKFGNDTFGVSLYDLNYRKIDAGYNNVAGISEYGYGSYSRTSAQNIAYNPDTGVTAPFANLDRQAYTDANNDGTSDRNADGTVVATNTKIGQMGFGVKAAANLGPVAIGGYYDTSTGANGDNANRMTEAGGSAKVAYSIFSLRGTYNTLDSNRPQIYRDAAGTQIIGDAKVRRYAVQADVTPGLGLFVGAYYRDVNVNGVRSTTDRGLLGRGYLASSFEPGVGNNAYRTGLRCADNNFGTGTRDIDGVGGVLNPAVNLDQSRTATCFTSYGVEAGHAGDNANALVKDLFFRVGYSRVYVPTTATATTGDFSGSVTYGDARYDRKVGVANVRLAGSFSTTNTQLDSRPAGTRGAVGLIVRTDPLENVPFRPQFNGQVGYYTADNRVAAGNYNANATKYGAGVVLNDFLLPQTKIGVRYDGYMAQNRQYTPFDGDGTQGYFSDANNNRRTNLNGVYVEGAYQDLIFSYGTYTLSQKDLNGVEYGSGINNGQPARGQTFKISYKVNF
notes: SlpA, Deinococcus radiodurans, UniProtKB Q9RRB6; Native protein from the source organism, no tags; Only residues 215-1167 are well resolved in the cryo-EM map; also called SlpA protein complex; SlpA porin; source: purified from D. radiodurans (ATCC BAA816): DDM extraction, HiTrap-Q, Superose 6 Increase
B2: uncharacterized protein DR_0644 (natural protein, Deinococcus radiodurans, UniProt Q9RWM2 20-206, looked up)
chain: GPTEGTYTLAPQAVVKPAGPVYAPAGTAKISETLGVTRTTITLTGMAPYAIYVAHYHKMGTAAPMGSAPATNTNMAMSSTDATATTTASTSTTSTDTTVAASTDMTTTVTMAPVTAAPNPCNSDGPAIMESRMIAQASADGKVTLTGIVPTALIRDAAYINVHHGRDFSGALADSGVICTPITMTMR
notes: uncharacterized protein DR_0644, Deinococcus radiodurans; the mature protein, fitted from the mature N-terminus Gly20 to the C-terminus Arg206, with an unstructured loop 82-133; Identified from the map density combined with structural modelling (rigid-body fit of an AlphaFold2 model); also called accessory protein; additional protein density; source: endogenous, D. radiodurans; present with the …

What was measured:
[1] = molecular target: the molecule itself; experiment: cryo-EM structure; single-particle analysis of SlpA purified from D. radiodurans in detergent (20 mM HEPES/NaOH pH 7.5, 150 mM NaCl, 0.02 % DDM; 4.45 mg/mL); C3 symmetry; global resolution 3.25 Å
[2] = molecular target: B1; experiment: as above; conditions: both partners purified

Row | binding result [2] | Binder | stoichiometry N [1]
1 | – | B1 | 3
2 | binds | B2 | 3

From paper doi:10.1101/2022.05.18.492506, “A multi-domain connector links the outer membrane and cell wall in deep-branching bacteria” (bioRxiv, 2022)
